Data from patent US20230399390A1.

Key:
[1] = biological target: human Nogo-A d20plus region (human aa position 543-866), recombinantly produced in E. coli (human) (UniProt Q9NQC3); experiment: ELISA, coated d20plus (human, as read from the context), internal standard
rat Nogo-A (rat) = rat Nogo-A (rat) (UniProt Q9JK11); experiment: cell-based or functional assay
Sequence of rat Nogo-A (rat) (Q9JK11 whole entry): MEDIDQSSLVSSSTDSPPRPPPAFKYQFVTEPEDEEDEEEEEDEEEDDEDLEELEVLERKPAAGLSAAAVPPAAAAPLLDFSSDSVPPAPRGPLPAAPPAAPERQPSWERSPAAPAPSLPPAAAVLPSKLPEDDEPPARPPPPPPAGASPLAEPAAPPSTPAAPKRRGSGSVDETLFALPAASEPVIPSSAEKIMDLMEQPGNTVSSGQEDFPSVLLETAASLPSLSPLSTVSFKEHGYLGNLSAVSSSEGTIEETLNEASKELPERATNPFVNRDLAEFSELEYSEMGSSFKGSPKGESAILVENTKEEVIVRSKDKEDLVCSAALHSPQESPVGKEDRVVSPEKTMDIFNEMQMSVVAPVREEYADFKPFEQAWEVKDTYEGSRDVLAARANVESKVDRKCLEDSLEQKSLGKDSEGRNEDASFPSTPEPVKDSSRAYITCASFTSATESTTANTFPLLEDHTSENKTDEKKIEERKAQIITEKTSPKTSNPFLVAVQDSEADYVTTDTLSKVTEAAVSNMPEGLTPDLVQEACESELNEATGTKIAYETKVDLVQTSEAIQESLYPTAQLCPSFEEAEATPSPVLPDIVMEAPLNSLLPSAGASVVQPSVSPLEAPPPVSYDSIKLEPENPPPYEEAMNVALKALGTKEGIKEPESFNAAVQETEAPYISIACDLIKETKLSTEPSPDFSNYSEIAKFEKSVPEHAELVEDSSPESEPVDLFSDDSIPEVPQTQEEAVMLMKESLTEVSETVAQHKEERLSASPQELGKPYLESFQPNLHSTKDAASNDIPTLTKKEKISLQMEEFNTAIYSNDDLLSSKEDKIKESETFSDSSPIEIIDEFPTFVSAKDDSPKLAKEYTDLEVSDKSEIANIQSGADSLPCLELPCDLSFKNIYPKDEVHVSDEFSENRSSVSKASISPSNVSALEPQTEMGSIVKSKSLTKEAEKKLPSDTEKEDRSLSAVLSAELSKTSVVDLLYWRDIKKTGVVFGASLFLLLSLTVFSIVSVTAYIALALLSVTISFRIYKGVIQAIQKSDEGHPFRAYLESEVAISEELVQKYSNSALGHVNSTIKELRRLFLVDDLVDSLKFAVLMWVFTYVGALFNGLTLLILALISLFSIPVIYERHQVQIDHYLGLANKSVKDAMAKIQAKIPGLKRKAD

Sequence of human Nogo-A d20plus region (human aa position 543-866), recombinantly produced in E. coli (human) (Q9NQC3 543-866 limits assumed): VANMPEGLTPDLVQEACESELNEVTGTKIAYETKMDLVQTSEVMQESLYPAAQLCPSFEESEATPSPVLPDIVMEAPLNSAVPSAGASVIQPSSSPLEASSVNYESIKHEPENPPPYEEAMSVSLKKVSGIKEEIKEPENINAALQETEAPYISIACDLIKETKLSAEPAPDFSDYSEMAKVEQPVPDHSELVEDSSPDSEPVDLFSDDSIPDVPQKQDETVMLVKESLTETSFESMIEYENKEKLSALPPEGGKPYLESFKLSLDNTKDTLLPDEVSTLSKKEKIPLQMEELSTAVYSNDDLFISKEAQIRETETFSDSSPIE

EC50 [1]: 0.14 nM
IC50 for stimulating neurite outgrowth of N1E-115 cells in presence of rat CNS extract (rat Nogo-A (rat)): 19.3 nM
Substance: murine monoclonal anti-Nogo-A antibody 11C7
